The text below walks through data of PMC7585734, “Site-specific epitope insertion into recombinant proteins using the MAP tag system” (Journal of Biochemistry, 2020).

Positions count from the first letter of the chain named. In names and notes the source's numbering stands.

The target in assay [1] is T1, MAP tag peptide (14-residue) (Mus musculus).
T1 construct: 14-residue MAP tag derived from mouse podoplanin; also called MAP14 peptide; MAP peptide; source: synthetic peptide; also conjugated to Sepharose
T1 chain: GDGMVPPGIEDKIT
Description: pull-down; purified Fv-clasp samples mixed with MAP14 peptide-conjugated Sepharose, 1 h at room temperature; washed three times with TBS (20 mM Tris pH 7.5, 150 mM NaCl); 15% SDS-PAGE, Coomassie. The note with it: both partners purified.

Another assay deals with T2, Fn10-nMAP14 (Mus musculus (MAP tag), chimera).
T2 construct: original 14-residue MAP tag derived from mouse podoplanin, at the N-terminus; tenth fibronectin type III domain (Fn10) of human fibronectin, residues 1417-1509; disulphide-linked dimer via the Fc; also called N-terminally MAP-tagged Fn10-Fc; source: Expi293F, transiently transfected, culture supernatant
T2 chain: GDGMVPPGIEDKIT
Description: pull-down; PMab-1 immobilised on Sepharose; culture supernatants of transfected Expi293F cells; washed three times with TBS; 12.5% non-reducing SDS-PAGE, Coomassie. The following applies: one partner purified.

For the next assay, the target named is T3, Fn10-nMAP8 (Mus musculus (MAP tag), chimera).
T3 construct: MAP8 tag, the N-terminal 8 residues of the MAP tag derived from mouse podoplanin, at the N-terminus; tenth fibronectin type III domain (Fn10) of human fibronectin, residues 1417-1509; disulphide-linked dimer via the Fc; also called N-terminally MAP-tagged Fn10-Fc; source: Expi293F, transiently transfected, culture supernatant
T3 chain: GDGMVPPG
The assay is described as above. The note with it: one partner purified.

The next assay deals with T4, Fn10-iFG-G (mouse podoplanin MAP8 tag (carried in …, chimera)).
T4 construct: Fn10 of human fibronectin up to Gly1494 of the FG loop; extra Gly residue(s) before the tag; MAP8 tag, derived from mouse podoplanin; extra Gly residue(s) after the tag; Fn10 of human fibronectin from Ser1496; As Fn10-iFG with the inserted MAP8 flanked by extra Gly residues at both ends; source: Expi293F, transiently transfected, culture supernatant
T4 chain: GDGMVPPG
Described as above. The following applies: one partner purified.

B1: PMab-1(QQ) Fv-clasp (other, rat | human)
VH: QIQLQQSGTVLVKPASSVKISCKASGYSFTSHYMHWIRQQPGQGLEWIGWISPEQGNTKYNQKFDGKATLTADKSSSIAYMQLSSLTSEDSAVYFCVSWEDWSAYWGQGTLVTVCS
VL: DIVLTQSPALTVSLGQRATISCKTNQNVDYYGNSYVHWYQQKPGQKPKLLIYLASNLASGIPARFSGRGSGTDFTLTIDPVEAADTATYYCQQSRDLPNTFGAGTKLELK
notes: VH domain of rat anti-MAP monoclonal antibody PMab-1; SARAH domain of human Mst1 (anti-parallel coiled coil of the Fv-clasp format); VL domain (kappa) of rat anti-MAP monoclonal antibody PMab-1; SARAH domain of human Mst1 with S37C; Fv-clasp(v2) format, non-tagged version; also called PMab-1(QQ) Fv-clasp mutant; PMab-1VH(S112C)-SARAH with N43Q and N54Q + PMab-1VL-SARAH(S37C)
In the case of B1, the binding result in assay [1] is listed as “binds”.

B2: PMab-1, rat anti-MAP monoclonal antibody (IgG2a, kappa) (antibody, V domains shown)
VH: B1 VH with Q43N, Q55N, C115S
VL: B1 VL
notes: VH of PMab-1; as the VH of m1 (PDB 6lz4, VH-SARAH chain) but with Asn43, Asn54 and Ser112 of the parent antibody; constant region of rat IgG2a heavy chain; VL of PMab-1; as the VL of m1 (PDB 6lz4, VL-SARAH chain); constant region of rat kappa light chain; Whole antibody; immobilised on Sepharose for pull-downs, used at 1.0 ug/ml in flow cytometry; copies: 2 + 2
As to B2, the binding result in the assay with Fn10-nMAP14, in the assay with Fn10-nMAP8 and in the assay with Fn10-iFG-G was “binds” in each case.

B3: PMab-1 Fv-clasp (other, rat | human)
VH: B1 VH with Q43N, Q55N
VL: B1 VL
notes: VH domain of PMab-1 with S112C; as the VH of m1 (PDB 6lz4, VH-SARAH chain) but with Asn at 43 and 54 instead of the Gln of the entry; C112 is already in the entry; SARAH domain of human Mst1; VL domain (kappa) of PMab-1; as the VL of m1 (PDB 6lz4, VL-SARAH chain); SARAH domain of human Mst1 with S37C; as in the VL-SARAH chain of m1 (PDB 6lz4), which already holds the Cys; Parent of m1, without …
On to B3, for which, in assay [1], the binding result is reported as “binds”.
